Results taken from US20240018252A1 (Pfizer, published 2024).

Biological target: T1, human CD3 (huCD3ed) (human, UniProt P07766 23-126; P04234 22-105)
T1 construct: Soluble analyte in SPR; The delta chain is inferred from the label 'ed'; also called hCD3ed; hCD3
Assay: Biacore SPR, antibody as ligand, hCD3ed; steady state affinity only, rough estimate (antibody heterogeneous)

T1 sequence (P07766 23-126, chain 1 of 2): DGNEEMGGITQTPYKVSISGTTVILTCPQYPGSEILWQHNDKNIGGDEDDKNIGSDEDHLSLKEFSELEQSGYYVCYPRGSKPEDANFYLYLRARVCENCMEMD
T1 sequence (P04234 22-105, chain 2 of 2): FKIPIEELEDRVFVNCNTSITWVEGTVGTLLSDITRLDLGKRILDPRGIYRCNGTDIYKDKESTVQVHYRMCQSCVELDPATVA

Kd [nM] | Binder
82.7 | 7A3 (antibody, mouse IgG1, V domains shown, Cloned from immunized mouse, expressed as mouse IgG1; also called anti-CD3 7A3) VH: EVQLQQSGAELVRPGALVKLSCKGSGFNIKDYYIHWVKQRPEQGLEWIGWIDPENGNNKYDPKFQGKASITADTSSNIAYLQLSSLTSEDTAVYYCARNDNYAFDYWGQGTTVTVSS VL: DIVVSQSPSSLAVSAGEKVIMSCKSSQSLLNSRTRKNYLAWYQLKPGQSPKLLIYSASTRESGVPDRFTGSGSGTDFTLTISSVQTEDLAVYYCMQSFTLRTFGGGTKLEIK
100 | 1A4 (antibody, mouse IgG1, V domains shown, Cloned from immunized mouse, expressed as mouse IgG1; also called anti-CD3 1A4) VH: QVQLQQSGPDLVKPGASVEISCKASGYSFTTYYLHWVRQRPGQGLEWIGWIFPGSDNTKYNEKFKGKATLTADTSSSTAYMQLSSLTSEDSAVYFCARNRDYYFDYWGQGTTVTVSS VL: DIVMSQSPSSLAVSAGEKVTMSCKSSQSLLNSRTRKNYLAWYQQKPGQSPKLLIYWASTRASGVPDRFTGSGSGTDFTLTISSVQAEDLAIYYCKQSFILRTFGGGTKLEIK
